The text below walks through data of patent US20120094898A1, “PEPTIDE DERIVATIVE” (Takeda Pharmaceutical Company Limited, priority 2010, published 2012).

Non-standard residues stand in square brackets, D forms with d. Primed or numbered codes have the meaning given here. *: point of attachment. Acetyl(2-(piperazin-1-yl)) = O=C(CN1CCNCC1)*; 2Nal = N[C@@H](Cc1ccc2ccccc2c1)C(=O)O; Pic(4) = not defined here; NMeA = CN[C@@H](C)C(=O)O; Ahx = NCCCCCC(=O)O

As a reminder, the EC50 is the concentration that produces a half-maximal response.

Data set [1] has as its system male C57BL/6J mice. Description: Subcutaneous administration test in mice (anorectic activity, food intake). Type of data set: in vivo. Particulars: 600 nmol/kg/day subcutaneous, food intake 1 day after initiation of administration, vs solvent control. Here is the method: Subcutaneous Administration Test in Mice Anorectic activity of the test compounds was evaluated by the following method. Each of the test compounds was dissolved in a solvent (physiological saline), and an amount of 600 nmol/kg/day was used. An amount of 2 mL/Kg of an administration liquid obtained by dissolving each test compound in physiological saline was subcutaneously administered to the back of 9- to 10-week-old male C57BL/6J mice (CLEA Japan, Inc.) (at 25° C., having free access to food and water, 12 hours of light period and 12 hours of dark period). After the administration, the mice were returned to breeding cages (individual feeding), pre-weighed food was given, and the food intake 1 day after the initiation of the administration was measured. The food intake was calculated by subtracting the weight of the food remaining from the weight of the food given on the day the administration was initiated. Based on the calculated food intake, the anorectic ratio (%) of each test compound was calculated using the following formula. […] The group where only the solvent was administered as described above was used as a control group. Food Intake Inhibition (%): {(food intake of the control group−food intake of a test compound administration group)/food intake of the control group}×100

Data set [2] deals with T1, human NMUR2 (Homo sapiens, UniProt Q9GZQ4).
T1 construct: expressed in transfected cells
T1 sequence (Q9GZQ4 whole entry): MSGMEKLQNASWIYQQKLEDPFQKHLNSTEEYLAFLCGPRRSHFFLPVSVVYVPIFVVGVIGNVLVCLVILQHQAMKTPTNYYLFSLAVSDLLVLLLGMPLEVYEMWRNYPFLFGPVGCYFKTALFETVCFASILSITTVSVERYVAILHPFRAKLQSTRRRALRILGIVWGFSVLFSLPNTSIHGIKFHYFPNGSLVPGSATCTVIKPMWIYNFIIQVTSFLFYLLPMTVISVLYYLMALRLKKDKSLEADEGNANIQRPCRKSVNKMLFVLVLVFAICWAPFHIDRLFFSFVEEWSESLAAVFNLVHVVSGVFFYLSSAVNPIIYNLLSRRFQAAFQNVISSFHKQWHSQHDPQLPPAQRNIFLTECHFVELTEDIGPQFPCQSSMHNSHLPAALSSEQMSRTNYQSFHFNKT
Description: Ca influx assay using CHO cells expressing human NMUR2. Particulars: CHO cells stably expressing human NMUR2; intracellular Ca elevation, FLIPR Tetra; relative to 1 μM porcine NMU-8; read-out: hNMUR2 EC50. Type of data set: cell-based. The procedure:
(§1) Ca Influx Assay Using CHO Cells Expressing Human NMUR1 or NMUR2
(§2) CHO cells stably expressing human NMUR1 or NMUR2 (J Biol Chem 275(28), pp. 21068-21074 (2000); and J Biol Chem 275(38), pp. 29528-29532 (2000)) were seeded onto a 384-well black/clear plate (Becton Dickinson) (10,000 cells per well) using nucleic acid-free MEM-α medium (Nikken Bio Medical Laboratory) containing 10% dialyzed blood serum (Gemini Bio Products) and 50 μg/mL gentamycin (Invitrogen), and cultured overnight in 5% carbon dioxide at 37° C. Then, after removal of the medium, the cells were loaded with Calcium Kit-Fluo 4 (Dojindo) containing 0.1% fatty acid-free BSA (Wako) at 37° C. (for 15 minutes). Further, test compounds at each concentration, as well as 1 μmol/L porcine NMU-8 (BACHEM) as a control group, were added to the cells, and an elevation of intracellular Ca concentration was monitored for 3 minutes using a FLIPR Tetra system (Molecular Devices). The agonist activity (%) of each of the test compounds for NMUR was calculated using the following formula: […]
(§3) wherein W represents a fluorescence value based on the intracellular Ca concentration in cells to which each test compound was added; X represents a fluorescence value based on the intracellular Ca concentration in cells to which only 0.1% DMSO was added; and Y represents a fluorescence value based on the intracellular Ca concentration in cells to which 1 μM porcine NMU-8 was added. The EC50 value of each test compound was calculated using Prism 5 (GraphPad).

For data set [3], the target named is T2, human NMUR1 (Homo sapiens, UniProt Q9HB89).
T2 construct: expressed in transfected cells
T2 sequence (Q9HB89 1-426): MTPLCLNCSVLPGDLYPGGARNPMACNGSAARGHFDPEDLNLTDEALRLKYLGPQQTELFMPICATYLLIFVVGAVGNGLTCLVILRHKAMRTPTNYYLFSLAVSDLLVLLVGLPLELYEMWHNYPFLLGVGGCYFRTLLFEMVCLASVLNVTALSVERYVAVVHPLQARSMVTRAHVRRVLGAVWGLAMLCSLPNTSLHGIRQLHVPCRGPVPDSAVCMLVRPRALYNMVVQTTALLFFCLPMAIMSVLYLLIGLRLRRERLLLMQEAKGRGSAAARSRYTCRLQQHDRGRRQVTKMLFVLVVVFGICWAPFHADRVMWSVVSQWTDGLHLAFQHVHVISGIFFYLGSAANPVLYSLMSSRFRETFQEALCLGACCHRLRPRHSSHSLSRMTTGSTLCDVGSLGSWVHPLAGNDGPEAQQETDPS
Description: Ca influx assay using CHO cells expressing human NMUR1. Type of data set: cell-based. Conditions: CHO cells stably expressing human NMUR1; intracellular Ca elevation, FLIPR Tetra; relative to 1 μM porcine NMU-8; read-out: hNMUR1 EC50. The procedure:
as §1, §2, §3

The test system of data set [4] is cynomolgus monkeys. Briefly: Single subcutaneous administration test in monkeys (emetic response). Type of data set: in vivo. The procedure:
Single Subcutaneous Administration Test in Monkeys
The emetic response induced by the test compounds was evaluated by the following method.
The test compound C was dissolved in physiological saline at a concentration of 1,000 nmol/kg and the test compound D was dissolved in physiological saline at a concentration of 300 nmol/kg, and used separately. An administration liquid obtained by dissolving each test compound in physiological saline was subcutaneously administered to the back of cynomolgus monkeys (2 males and 2 females each, 3 years and 11 months old to 4 years and 4 months old). After the administration, the animals were immediately returned to their individual cages, and videotaped for 10 hours. Vomiting and dry heaves observed during the videotaping were counted. Vomits were counted as the number of instances of vomiting up to 24 hours after the completion of the videotaping.

Turning to “PEG20k(AL)-Pic(4)0,Nal(2)2,NMeAla6-NMU-8 ({PEG20k(AL)-Pic(4)}-Y[2Nal]LFR[NMeA]RN-NH2; reading uncertain) [Compound F, PEG20k(AL)-Pic(4)-Tyr-Nal(2)-Leu-Phe-Arg-NMeAla-Arg-Asn-NH2]”, in data set [1], the “Food intake Inhibition” value is given as 74.3%. For the same substance, the EC50 in data set [2] was 54 nM; in data set [3] it was above 1000 nM.
For “PEG20k(AL)-Acp0,Nal(2)2,NMeAla6-NMU-8 ({PEG20k(AL)-Ahx}-Y[2Nal]LFR[NMeA]RN-NH2) [Compound G, PEG20k(AL)-Acp-Tyr-Nal(2)-Leu-Phe-Arg-NMeAla-Arg-Asn-NH2]” the same measures were 71.4%, 5.9 nM and 170 nM.
Regarding “PEG20k(AL)-NpipAc0,Nal(2)2,Ala6-NMU-8 ({PEG20k(AL)-Acetyl(2-(piperazin-1-yl))}-Y[2Nal]LFRARN-NH2) [Compound D, PEG20k(AL)-NpipAc-Tyr-Nal(2)-Leu-Phe-Arg-Ala-Arg-Asn-NH2]”, the “No. of vomiting (0-24 h)” value in data set [4] (300 nmol/kg single subcutaneous, n = 4 (2 males, 2 females)) was determined as 0. In addition, in data set [4] (single subcutaneous, C 1,000 nmol/kg, D 300 nmol/kg), the “emetic response (vomiting), result in words” value is recorded as “prevent vomiting”. For the same substance, the “Food intake Inhibition” value in data set [1] stood at 70.5%. Further, the EC50 in data set [2] is 8.8 nM; in data set [3], above 1000 nM.
“PEG20k(AL)-PEG(2)0,Nal(2)2,NMeAla6-NMU-8 ({PEG20k(AL)-PEG(2)}-Y[2Nal]LFR[NMeA]RN-NH2) [PEG20k(AL)-PEG(2)-Tyr-Nal(2)-Leu-Phe-Arg-NMeAla-Arg-Asn-NH2]”: the “Food intake Inhibition” value in data set [1] came to 68.6%. Besides, the EC50 is 39 nM in data set [2] and above 1000 nM in data set [3].
